According to the supplement of paper PMC10567573:
± gives the standard deviation.

Experiment: protein stability index of a GFP-peptide fusion (GPS, HEK-293T) (PSI 1-6); higher = more stable
[1] = treatment: DMSO, c terminus: a fixed tail appended
[2] = treatment: MLN4924 1 uM, 8 h, c terminus: a fixed tail appended
[3] = treatment: DMSO, c terminus: native
[4] = treatment: MLN4924 1 uM, 8 h, c terminus: native
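Further: 24-mer peptide tiles fused after GFP, lentivirally expressed, FACS-sorted into six equal bins by GFP/DsRed ratio, decoded by Illumina sequencing, PSI is the read-weighted mean bin number.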

**Q.** What does the source list for NGVSGPSQDLLPPPNPYPLPQEHS [TBX5]?
**A.** protein stability index [1]: 4.64 ± 0.33; protein stability index [2]: 4.54 ± 0.56

**Q.** For QGYVSDIRRFLSAFHEPQVGLIQA [DFFB], which protein stability index [1] is on record?
**A.** The protein stability index was 2.15 ± 0.47.

**Q.** What about the protein stability index [2] of the same sequence?
**A.** Its protein stability index is 2.38 ± 0.17.

**Q.** For EEHWVGLKKEPGHPWKWSNGKEFN [CD69], which protein stability index [1] is on record?
**A.** The protein stability index was 3.19 ± 0.27.

**Q.** What about the protein stability index [2] of the same sequence?
**A.** The protein stability index was 3.33 ± 0.21.

**Q.** For REKQLSHSLRAVSTDPPHHDHHDE [BEX1], which protein stability index [1] is on record?
**A.** Its protein stability index is 5.37 ± 0.4.

**Q.** And the protein stability index [2]?
**A.** Its protein stability index is 5.382 ± 0.051.

**Q.** Which protein stability index [1] does the source give for RLAADDFRTKFETEQALRLSVEAD [KRT17] here?
**A.** The protein stability index was 4.8 ± 0.3.

**Q.** What about the protein stability index [2] of the same sequence?
**A.** The protein stability index was 4.66 ± 0.15.

**Q.** For PSEEYGKILEVVGRYSVHNAGISF [MLH1], which protein stability index [1] is on record?
**A.** Its protein stability index is 2.32 ± 0.36.

**Q.** For IENRDVAKSVLKERGLKKIRLGIE [BTBD10], which protein stability index [1] is on record?
**A.** Its protein stability index is 3.36 ± 0.28.

**Q.** And the protein stability index [2]?
**A.** Its protein stability index is 3.32 ± 0.13.

**Q.** With DAETPPRFTRTPVDQTGVSGGVAS [PTPRD] as the sequence, how does the protein stability index [1] read?
**A.** The protein stability index was 5 ± 0.31.

**Q.** And the protein stability index [2]?
**A.** Its protein stability index is 4.638 ± 0.016.

**Q.** Which protein stability index [1] does the source give for VMSGVKCSGTELSLAHCRHDGEDV [LOXL2] here?
**A.** Its protein stability index is 4.95 ± 0.21.

**Q.** And the protein stability index [2]?
**A.** The protein stability index was 4.89 ± 0.24.

**Q.** Which protein stability index [1] does the source give for AIDQYRVCQEVLERSRDVVDEVSV [RHOBTB1] here?
**A.** Its protein stability index is 4.61 ± 0.21.

**Q.** What about the protein stability index [2] of the same sequence?
**A.** The protein stability index was 4.32 ± 0.15.

**Q.** What does the source list for NSYPRADTGLFSRSKSGSEEVLCD [TRIM29]?
**A.** protein stability index [1]: 4.62 ± 0.33; protein stability index [2]: 4.68 ± 0.32

**Q.** With HCGELKRRLGLSTLGELKQNLSRS [TPD52L2] as the sequence, how does the protein stability index [1] read?
**A.** The protein stability index was 3.04 ± 0.22.

**Q.** What about the protein stability index [2] of the same sequence?
**A.** Its protein stability index is 3.22 ± 0.44.

**Q.** Which results are given for GSPVSSWILLAESNSADDETDDPR [OAS1]?
**A.** protein stability index [1]: 5.02 ± 0.27; protein stability index [2]: 4.99 ± 0.39

**Q.** With QVTMRGLLSCLSKSNNRLKSLSIQ [FBXO39] as the sequence, how does the protein stability index [1] read?
**A.** The protein stability index was 2.21 ± 0.11.

**Q.** What about the protein stability index [2] of the same sequence?
**A.** Its protein stability index is 2.07 ± 0.21.

**Q.** With DKRHVEQKIQFKRETASLKLLPHQ [PDZK1] as the sequence, how does the protein stability index [1] read?
**A.** The protein stability index was 3.85 ± 0.31.

**Q.** What about the protein stability index [2] of the same sequence?
**A.** The protein stability index was 3.8 ± 0.24.

**Q.** Which protein stability index [1] does the source give for GARYEVTVVSVRGFEESEPLTGFL [TNXB] here?
**A.** Its protein stability index is 2.53 ± 0.79.

**Q.** What about the protein stability index [2] of the same sequence?
**A.** The protein stability index was 2.38 ± 0.59.

**Q.** Which results are given for TWWIMFLSTFSVPYFLFQHWATGY [SOAT1]?
**A.** protein stability index [1]: 3.18 ± 0.29; protein stability index [2]: 2.77 ± 0.51

**Q.** With HYYPKLMSIMGNVLRFLPAFVRMK [GFOD1] as the sequence, how does the protein stability index [1] read?
**A.** The protein stability index was 2.41 ± 0.12.

**Q.** What about the protein stability index [2] of the same sequence?
**A.** Its protein stability index is 2.24 ± 0.12.

**Q.** With NSAIRFLRKYSFDGLDLDWEYPGS [CHIT1] as the sequence, how does the protein stability index [1] read?
**A.** The protein stability index was 2.38 ± 0.28.

**Q.** What about the protein stability index [2] of the same sequence?
**A.** Its protein stability index is 2.36 ± 0.32.

**Q.** For GKRTPRGRRGWKKFYAVLKGTILY [PSD2], which protein stability index [1] is on record?
**A.** Its protein stability index is 2.97 ± 1.6.

**Q.** What about the protein stability index [2] of the same sequence?
**A.** The protein stability index was 2.61 ± 0.73.

**Q.** Which results are given for YGETDFHKQDGKAGLFSQEQYERN [TMEM40]?
**A.** protein stability index [1]: 4.18 ± 0.16; protein stability index [2]: 4.72 ± 0.56

**Q.** With KKRRLPPVHIHPAFARQAAQEPSA [FOXJ1] as the sequence, how does the protein stability index [1] read?
**A.** The protein stability index was 3.87 ± 0.25.

**Q.** What about the protein stability index [2] of the same sequence?
**A.** Its protein stability index is 3.82 ± 0.36.

**Q.** Which results are given for KCDQPFFWNFKQMWDSKKIGLRQH [WDFY2]?
**A.** protein stability index [1]: 2.29 ± 0.36; protein stability index [2]: 2.65 ± 0.42

**Q.** Which results are given for AKKIKLTAEAEELKPFFMKEVGSH [SOAT1]?
**A.** protein stability index [1]: 3.5 ± 0.34; protein stability index [2]: 3.59 ± 0.38

**Q.** For GDRAGDASKDILLGPWDMVLAQG [SCARA5], which protein stability index [3] is on record?
**A.** Its protein stability index is 2.76 ± 0.64.

**Q.** What about the protein stability index [4] of the same sequence?
**A.** The protein stability index was 2.69 ± 0.54.

**Q.** With KADENNGFGSKNTAFCTHVFPETA [TBX5] as the sequence, how does the protein stability index [1] read?
**A.** Its protein stability index is 4.01 ± 0.47.

**Q.** What about the protein stability index [2] of the same sequence?
**A.** Its protein stability index is 3.86 ± 0.2.

**Q.** What does the source list for KTLYVGNLSRDVTEALILQLFSQI [TIA1]?
**A.** protein stability index [1]: 2.6 ± 0.51; protein stability index [2]: 2.73 ± 0.42

**Q.** Which protein stability index [3] does the source give for YSFRNPDVQSAIWRMLTGRRSLA [OR3A1] here?
**A.** Its protein stability index is 2.44 ± 0.51.

**Q.** And the protein stability index [4]?
**A.** Its protein stability index is 2.65 ± 0.36.

**Q.** Which protein stability index [1] does the source give for PPATQNTFGNSTLALGPGESLPHR [PLAGL1] here?
**A.** The protein stability index was 4.63 ± 0.34.

**Q.** And the protein stability index [2]?
**A.** The protein stability index was 4.39 ± 0.083.

**Q.** Which protein stability index [3] does the source give for TYECRCIGEEKEMWNFGEKYARF [TIA1] here?
**A.** Its protein stability index is 2.58 ± 0.59.

**Q.** What about the protein stability index [4] of the same sequence?
**A.** The protein stability index was 2.93 ± 0.65.

**Q.** With PIGKISKNKKKKLKKKQKRQAELL [SRPK2] as the sequence, how does the protein stability index [1] read?
**A.** Its protein stability index is 4.37 ± 0.17.

**Q.** With LGEVAYHDYHGILVDEEEKVLIQK [ADD1] as the sequence, how does the protein stability index [1] read?
**A.** Its protein stability index is 4.9 ± 0.15.

**Q.** What about the protein stability index [2] of the same sequence?
**A.** The protein stability index was 4.74 ± 0.61.

**Q.** With MRAPMLQKQQAPRMDTPPPEERLE [CCDC89] as the sequence, how does the protein stability index [1] read?
**A.** The protein stability index was 5.21 ± 0.24.

**Q.** What about the protein stability index [2] of the same sequence?
**A.** Its protein stability index is 5.29 ± 0.29.

**Q.** For VLRAGDREDITEPAICALRHLTSR [CTNNB1], which protein stability index [1] is on record?
**A.** The protein stability index was 3.39 ± 0.39.

**Q.** What about the protein stability index [2] of the same sequence?
**A.** The protein stability index was 3.67 ± 0.18.

**Q.** With AKDPGKGELPNHPKPAGGAIPTKK [FBF1] as the sequence, how does the protein stability index [1] read?
**A.** Its protein stability index is 5.47 ± 0.34.

**Q.** What about the protein stability index [2] of the same sequence?
**A.** The protein stability index was 5.65 ± 0.15.

**Q.** With GPASRMDPESERALQAPHSPSKTD [PBXIP1] as the sequence, how does the protein stability index [1] read?
**A.** The protein stability index was 5.46 ± 0.24.

**Q.** And the protein stability index [2]?
**A.** The protein stability index was 5.34 ± 0.23.

**Q.** Which protein stability index [1] does the source give for STVGKLCRLINEDVNEQVMQVLGP [CEP70] here?
**A.** The protein stability index was 3.08 ± 0.19.

**Q.** And the protein stability index [2]?
**A.** The protein stability index was 3.2 ± 0.25.

**Q.** With DPPLSQDERTHRSDRPFKCNQCGK [ZNF8] as the sequence, how does the protein stability index [1] read?
**A.** Its protein stability index is 5.01 ± 0.24.

**Q.** What about the protein stability index [2] of the same sequence?
**A.** Its protein stability index is 5.11 ± 0.14.

**Q.** For MNARGLGSELKDSIPVTELSASGP [POMP], which protein stability index [1] is on record?
**A.** The protein stability index was 4.78 ± 0.34.

**Q.** What about the protein stability index [2] of the same sequence?
**A.** Its protein stability index is 4.62 ± 0.23.

**Q.** With DHLENVSKLVESGIQFMDEPEMAV [TRIM55] as the sequence, how does the protein stability index [1] read?
**A.** Its protein stability index is 4.54 ± 0.45.

**Q.** And the protein stability index [2]?
**A.** Its protein stability index is 4.75 ± 0.41.

**Q.** With KKRKRQEKIDKLEQDMERRKADFK [ZC3H15] as the sequence, how does the protein stability index [1] read?
**A.** The protein stability index was 4.7 ± 0.4.

**Q.** And the protein stability index [2]?
**A.** The protein stability index was 4.77 ± 0.1.

**Q.** What does the source list for NLFVMQVEMDIYTALKKWMFLQLV [GMCL1]?
**A.** protein stability index [1]: 2.74 ± 0.66; protein stability index [2]: 2.17 ± 0.39

**Q.** For DNSLSSQNYISQKEDASEFQILKY [MIA2], which protein stability index [1] is on record?
**A.** Its protein stability index is 3.94 ± 0.27.

**Q.** And the protein stability index [2]?
**A.** Its protein stability index is 3.74 ± 0.6.

**Q.** Which protein stability index [1] does the source give for QPPDMASALTDRTSRAPSTYTYTS [RSPH3] here?
**A.** The protein stability index was 4.39 ± 0.17.

**Q.** And the protein stability index [2]?
**A.** The protein stability index was 4.51 ± 0.15.

**Q.** For EERILHQQVKCIITEEKVCMVCKK [VPS39], which protein stability index [1] is on record?
**A.** Its protein stability index is 4.21 ± 0.33.

**Q.** What about the protein stability index [2] of the same sequence?
**A.** Its protein stability index is 4.39 ± 0.29.
